Reference: paper PMC9574934, “Targeting the Phosphatidylserine-Immune Checkpoint with a Small-Molecule Maytansinoid Conjugate” (Journal of Medicinal Chemistry, 2022)
Entries after “also recorded” stand apart in the source; their conditions may differ.

Experiments:
[1] = rats, 1 mg/kg i.v. once a week for 4 weeks
Experimental: The animal body weights were measured daily during the study period. At the end of the study on day 29, all the animals were euthanized with 100% CO2 and sacrificed for organ harvest followed by organ weight measurements and for blood sample collection followed by hematology and serum chemistry assays. Hematology and serum chemistry parameters were determined using a HEMAVET 950 automated analyzer (Drew Scientific, Santa Clara, CA, USA) and a FUJI DRI-CHEM NX500 automated analyzer (FUJIFILM, Tokyo, Japan), respectively.

[2] = system: MIA PaCa-2 human xenografts; assay: MIA PaCa-2 xenograft antitumor efficacy; conditions: 1 mg/kg intravenously twice weekly for two weeks (Figure 4)
Experimental: (§1) Cancer cells, suspending in phenol red free medium/DPBS, were mixed with Matrigel (356237, BD Biosciences, San Jose CA, USA) in a 1:1 ratio. Human pancreatic cancer MIA PaCa-2 (1 × 10^6 cells) or triple-negative breast cancer HCC1806 (1 × 10^6cells) cells were subcutaneously inoculated to left flanks of male nude mice 6 weeks old (Biolasco, Taiwan) or female nude mice 6 weeks old by using a 1 mL syringe (needle 24G × 1 in., 0.55 × 25 mm; TERUMO). Tumor dimensions were measured twice a week with an electronic caliper (FOW54-200-777, PRO-MAX, Newton, Massachusetts, USA), and the volume of the subcutaneously growing tumor in mm^3 was calculated by the following formula: volume = (length × width[2])/2. Conjugates were formulated 10% DMA/20% Cremophor EL/70% injectable solution of 5% dextrose (D5W) for treating MIA PaCa-2 and HCC1806 xenograft tumors. […] Body weight of the mice and tumor volume were measured twice weekly.

[3] = system: HCC1806 triple-negative breast cancer (TNBC) xenografts
Experimental: as §1

[4] = system: ovarian, skin, and oral cancer cell lines; conditions: Figure S2
[5] = Single intravenous dose pharmacokinetic study
Experimental: (§2) Six-week-old male ICR mice, from the Biolasco Taiwan, were divided into groups of three and dosed at 5 mg/kg intravenously. Blood samples were drawn from each animal at time points of 0.003, 0.083, 0.25, 0.5, 1, 2, 4, 6, 8, and 24 h and stored on ice (0–4 °C). With centrifugation (3000 rpm for 15 min at 4 °C in a Beckman Model Allegra 6R centrifuge), plasma was separated from the blood and stored in frozen conditions (−20 °C). […] The mice were sacrificed, and the blood samples of 0.5 mL each and tumor samples were collected at 0.5, 2, 6, 24, 72, and 168 h after administration. Each time point group included 4 mice. Mouse blood samples were collected in EDTA tubes and centrifuged at 13,000 rpm for 5 min at 4°C for plasma collection. Plasma and the harvested tumor samples were stored at −80°C until use. Fifty microliters of mouse plasma or the sample of tumor homogenated in ddH2O with dilution ratio of 1:3 (w/v) by MiniBeadbeater-16 (BioSpec Products Inc., OK, USA) was mixed with 100 μL of acetonitrile containing 250 ng/mL BPR0L187. The mixture was vortexed for 30 s and then centrifuged at 15000g for 20 min. The supernatant was transferred to a clean tube, and 15 μL of the supernatant was injected onto LC/MS/MS. Plasma samples were analyzed by liquid chromatography tandem mass spectrometry (LC/MS/MS). The chromatographic system Agilent 1200 series LC system and an Agilent ZORBAX Eclipse XDB-C8 column (5 μm, 3.0 × 150 mm) interfaced to an MDS Sciex API4000 tandem mass spectrometer equipped with an ESI in the positive scanning mode at 600 °C was used. Data acquisition was collected via multiple reactions monitoring (MRM). A gradient system was employed for the separation of analyte and IS. Mobile phase A was 10 mM ammonium acetate aqueous solution containing 0.1% formic acid. Mobile phase B was acetonitrile. The gradient profile was as follows: 0.0–1.1 min, 50% B; 1.2–3.7 min, 55%B–90%B; 3.8–5.0 min, 90%B–50%B. The flow rate was 1.5 mL/min. The autosampler was programmed to inject 15 μL of the sample every 5 min.

[6] = system: immunogenic gene expression in the TME; conditions: treated HCC tumor tissue vs vehicle
Experimental: (§3) In addition, a previously reported oncogene-induced, sorafenib-resistant HCC mouse model[50] was used in the current study to examine the antitumor activities of synthesized compounds. Male C57BL/6j mice 4–5 weeks old were purchased from the National Laboratory Animal Center (Taipei, Taiwan) and kept in the laboratory animal center (LAC) of NHRI. The mice received 2 μg of pCMV(CAT)T7-SB100 (Addgene #34879), 10 μg of pT/Caggs-NRASV12 (Addgene #20205), and 10 μg of pKT2/CLP-AKT-LUC plasmids through hydrodynamic injection and were monitored for tumor growth weekly using IVIS until the development of HCC in the liver. The animal study was reviewed and approved by the NHRI IACUC (Institutional Animal Care and Use Committee). HCC-bearing mice with the total flux from IVIS imaging above 1 × 10^9 photons/s were used for treatment of conjugates. […] Repetitive IVIS imaging was performed to track tumor progression, and tumor tissues of the treated HCC-bearing mice were collected at day 3, day 7, and day 14 post conjugate administrations for histological examination and RNA extraction. The tumor tissues of vehicle-treated HCC-bearing mice were collected at day 14 post treatment to serve as control samples.
The concentration (absorbance at 260 nm) and purity (A260/280 and A260/230 ratios) of the extracted RNA were measured by spectrophotometry, and the integrity of the RNA was further determined by a 2100 Bioanalyzer system (Agilent Technologies). The RNA, hybridized with barcoded probes (NanoString Technologies) provided in the nCounter Mouse PanCancer Immune Profiling panel kit, was then used for measurement of the mRNA expression of 770 genes related to immune responses. Nanostring nSolver 4.0 and nCounter advanced analysis 2.0 software (NanoString Technologies) were used for data processing, immune cell profiling, and pathway scoring according to developer’s instructions.

[7] = Experimental: as §2, with “The chromatographic system Agilent 1200 series LC system and an Agilent ZORBAX Eclipse XDB-C8 column (5 μm, 3.0 × 150 mm) interfaced to an MDS Sciex API4000 tandem mass spectrometer equipped with an ESI in the positive scanning mode at 600 °C was used. Data acquisition was collected via multiple reactions monitoring (MRM). A gradient system was employed for the separation of analyte and IS. Mobile phase A was 10 mM ammonium acetate aqueous solution containing 0.1% formic acid. Mobile phase B was acetonitrile. The gradient profile was as follows: 0.0–1.1 min, 50% B; 1.2–3.7 min, 55%B–90%B; 3.8–5.0 min, 90%B–50%B. The flow rate was 1.5 mL/min. The autosampler was programmed to inject 15 μL of the sample every 5 min.” left out
[8] = Plasma incubation and tumor homogenate cleavage of conjugate; assay type: in vitro ADME
Text: Figure 3 In vivo targeting ability, plasma stability, and in vivo biodistribution of modified zinc dipicolylamine conjugates in subcutaneous HCC1806 tumor xenografts. […] (B) In vivo detection of PS-expression in the HCC1806 tumor xenograft model. Representative IVIS images of new Zn11-794 fluorescence probe in mice.

[9] = system: HCC tumor microenvironment; conditions: HCC model
Experimental: as §3

[10] = system: sorafenib-resistant hepatocellular carcinoma (HCC) model
Experimental: as §3

## CCCCCC(=O)Nc1cccc(CN(Cc2cc(CN(Cc3ccccn3)Cc3cccc(NC(=O)CCCCC)n3)cc(OCCCCN(Cc3ccc(-c4ccccc4)cc3)C(=O)COCCOCCOCC(=O)NCc3ccc(CNC(=O)CCSSCCC(=O)N(C)[C@@H](C)C(=O)O[C@H]4CC(=O)N(C)c5cc(cc(OC)c5Cl)C/C(C)=C/C=C\[C@@H](OC)[C@@]5(O)C[C@H](OC(=O)N5)[C@@H](C)[C@@H]5O[C@@]45C)cc3)c2)Cc2ccccn2)n1.O=[N+]([O-])[O-].O=[N+]([O-])[O-].O=[N+]([O-])[O-].O=[N+]([O-])[O-].[Zn+2].[Zn+2] [Compound 40a]
[1]
  BUN and creatinine levels: normal
  GOT and GPT: slightly increased (not significant)
  hematologic (leukocyte, neutrophil, lymphocyte, and platelet) parameters: normal
  organ weights (liver and kidneys): did not alter organ weights
[2]
  antitumor efficacy: potent antitumor efficacies; also recorded: potent and lasting anti-MIA PaCa-2 activity
  body weight change during treatment: without apparent body weight loss
[3]; intravenous twice per week (Figure 4B)
  antitumor efficacy against HCC1806 TNBC xenografts: potent antitumor efficacy
[3]; larger (400–800 mm^3) tumors, 2.5 mg/kg once per week for three weeks
  efficacy on larger HCC1806 tumors: potent efficacies and shrinkage
[4]
  potency against ovarian, skin, and oral cancer cell lines: highly potent
[5]; 40a compared with conjugates 30 and 36
  decrease in volume distribution (Vss): 5 fold
[5]; intact conjugate, male ICR mice, 5 mg/kg intravenous
  AUC(0-24 hr) Conjugate: 105,599 ng/mL*hr
[5]; male ICR mice, 5 mg/kg intravenous, n = 3
  CL: 0.9 mL/min/kg
[5]; male ICR mice, 5 mg/kg intravenous, n = 3, 5 mg/kg
  Vss: 0.1 L/kg
[5]; released payload 14, male ICR mice, 5 mg/kg intravenous of conjugate
  AUC(0-24 hr) Drug: 305 ng·h/mL
[6]
  gene expression of CCL2: significantly elevated
  gene expression of CCL5 and CXCL10: Significant increases
  gene expression of STAT1: significantly elevated
[6]; n = 3
  T-cell, macrophage, NK cell, chemokine and receptor functions and inflammation score (gene set analysis): striking elevations
[7]; plasma of HCC1806 tumor-bearing mice
  plasma stability in vivo, detection of released 14: negligible detection of 14
[7]; tumor tissue of HCC1806 tumor-bearing mice
  14 released from 40a in the tumor mass: significant time-dependent increase
[8]; plasma
  stability in plasma incubation: stable
[8]; tumor homogenate
  cleavage with tumor homogenates: readily cleaved
[9]; 1 mg/kg i.v.
  Ki67 expression in treated tumors: reduction
[9]; IHC staining
  infiltration of Gr-1+ monocytes and polymorphonuclear granulocytes and F4/80+ macrophages: increased infiltration
[9]; days 3, 7, and 14
  cytotoxic CD8+ T-cell infiltration: significant increase
[10]; 1 mg/kg i.v. twice weekly for two weeks
  tumor burden by bioluminescence: significant decrease
[10]; 1 mg/kg injected twice weekly for two weeks
  activity against HCC tumor growth: potent activity
[10]; 14 days after treatment
  total liver weight: marked reduction
